Experimental data: paper PMC8701324, “Structural Insight into the Mechanism of PALB2 Interaction with MRG15” (Genes, 2021)
Residue numbers refer to the chain shown, from its start. In names and notes the source's numbering stands.

B1: WT PALB2^597-630 peptide P621T (peptide)
chain: MLSLKQLLSFLSITDFQLPDEDFGTLKLEKVKSC
B2: WT PALB2^597-630 peptide D616H (peptide)
chain: B1 chain with D20H, T25P
B3: WT PALB2^597-630 peptide P615S (peptide)
chain: B1 chain with P19S, T25P

Target: MRG15 MRG domain, amino acids 155-323, Q9UBU8-2
Assay: competition assay (fluorescence anisotropy, displacement of FAM-PALB2 from MRG)
Conditions: chain shown with the change; 10 nM WT FAM-PALB2 peptide; parent: 9.8 ±2.6

Sequence of MRG15 MRG domain, amino acids 155-323, Q9UBU8-2 (Q9UBU8 194-362): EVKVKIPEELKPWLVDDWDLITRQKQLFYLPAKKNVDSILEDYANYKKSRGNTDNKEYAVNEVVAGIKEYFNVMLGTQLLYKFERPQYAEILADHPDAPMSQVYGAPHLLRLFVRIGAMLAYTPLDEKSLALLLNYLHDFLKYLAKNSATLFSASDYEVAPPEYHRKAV

Row | Binder | Ki
1 | B1 | 1.7 nM
2 | B2 | 23.2 nM
3 | B3 | 52.8 nM
